According to patent US20130089497A1 (Genentech, published 2013):

T1: human FcRH5 on stably transfected cells (BJAB.huFcRH5, OPM2.huFcRH5) (human, UniProt Q96RD9 16-977)
T1 construct: also called BJAB-FcRH5; OPM2-FcRH5
T1 chain: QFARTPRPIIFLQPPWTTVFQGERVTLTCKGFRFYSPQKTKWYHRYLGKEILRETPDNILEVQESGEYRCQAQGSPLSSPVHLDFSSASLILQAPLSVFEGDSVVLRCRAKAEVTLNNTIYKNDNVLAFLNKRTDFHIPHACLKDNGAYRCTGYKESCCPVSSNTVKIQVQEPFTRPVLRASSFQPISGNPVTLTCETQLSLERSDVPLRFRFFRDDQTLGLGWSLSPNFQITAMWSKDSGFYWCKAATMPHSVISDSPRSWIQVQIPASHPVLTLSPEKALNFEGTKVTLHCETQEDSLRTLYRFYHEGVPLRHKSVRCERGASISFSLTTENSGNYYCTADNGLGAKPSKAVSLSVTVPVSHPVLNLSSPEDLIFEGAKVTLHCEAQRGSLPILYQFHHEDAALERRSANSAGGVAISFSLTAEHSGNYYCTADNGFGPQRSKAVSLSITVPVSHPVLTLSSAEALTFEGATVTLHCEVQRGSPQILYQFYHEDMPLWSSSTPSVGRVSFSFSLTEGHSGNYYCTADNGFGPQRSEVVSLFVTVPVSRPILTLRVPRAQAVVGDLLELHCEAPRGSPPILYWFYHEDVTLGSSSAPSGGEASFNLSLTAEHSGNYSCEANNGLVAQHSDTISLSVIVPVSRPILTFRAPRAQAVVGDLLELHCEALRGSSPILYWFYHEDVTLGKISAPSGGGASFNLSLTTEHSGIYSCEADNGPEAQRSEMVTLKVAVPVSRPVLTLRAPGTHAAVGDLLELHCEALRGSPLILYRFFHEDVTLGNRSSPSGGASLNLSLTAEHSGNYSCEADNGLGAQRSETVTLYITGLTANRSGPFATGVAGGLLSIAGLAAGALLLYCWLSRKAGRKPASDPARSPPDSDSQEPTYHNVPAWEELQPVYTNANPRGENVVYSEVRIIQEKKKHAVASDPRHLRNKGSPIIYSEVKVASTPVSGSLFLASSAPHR

T2: cynomolgus FcRH5 on stably transfected SVT2 cells (cynomologous monkey)
T2 construct: also called cyno FcRH5; cynoFcRH5
T2 chain: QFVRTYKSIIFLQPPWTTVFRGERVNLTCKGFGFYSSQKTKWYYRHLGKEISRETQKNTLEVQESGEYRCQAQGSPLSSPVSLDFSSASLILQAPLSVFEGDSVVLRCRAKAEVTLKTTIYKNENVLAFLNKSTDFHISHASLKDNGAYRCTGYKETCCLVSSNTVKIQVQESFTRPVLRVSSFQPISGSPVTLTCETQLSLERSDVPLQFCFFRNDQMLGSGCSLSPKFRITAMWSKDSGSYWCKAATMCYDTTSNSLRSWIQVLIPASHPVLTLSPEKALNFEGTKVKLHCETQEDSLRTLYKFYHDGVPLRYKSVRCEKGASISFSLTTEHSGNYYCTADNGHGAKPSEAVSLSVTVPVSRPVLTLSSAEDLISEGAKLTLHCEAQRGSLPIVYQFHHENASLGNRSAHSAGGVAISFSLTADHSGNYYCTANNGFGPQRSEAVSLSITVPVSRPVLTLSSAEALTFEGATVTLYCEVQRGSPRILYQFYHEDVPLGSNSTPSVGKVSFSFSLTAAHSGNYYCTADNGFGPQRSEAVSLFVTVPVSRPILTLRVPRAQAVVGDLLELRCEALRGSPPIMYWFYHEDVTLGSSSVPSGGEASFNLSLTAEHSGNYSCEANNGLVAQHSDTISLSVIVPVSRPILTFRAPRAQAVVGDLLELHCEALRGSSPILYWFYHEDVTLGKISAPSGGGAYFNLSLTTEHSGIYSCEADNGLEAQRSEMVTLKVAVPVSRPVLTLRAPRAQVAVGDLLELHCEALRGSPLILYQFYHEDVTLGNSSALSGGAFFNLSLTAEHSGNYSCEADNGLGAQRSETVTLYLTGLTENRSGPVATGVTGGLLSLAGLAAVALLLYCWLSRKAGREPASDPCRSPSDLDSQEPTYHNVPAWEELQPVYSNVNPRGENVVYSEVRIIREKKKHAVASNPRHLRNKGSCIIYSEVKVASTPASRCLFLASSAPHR


Legend:
[1] = molecular target: T1, human FcRH5 on stably transfected cells …; assay: Scatchard analysis: 0.5 nM 125I-labeled antibody competed with the unlabeled antibody (50 to 0.02 nM) on OPM2.huFcRH5 cells, 4 h at 4 C; St. Error 0.012
Description: (§1) To further determine binding of the FcRH5 murine antibodies and IgG clones, binding of iodinated IgG variants to OPM2 cells expressing human FcRH5 and SVT2 cells expressing cynomologous FcRH5, Scatchard analysis was performed (Table 9A).
(§2) For Scatchard analysis, 0.5 nM I¹²⁵ labeled murine or IgG clone anti-FcRH5 was competed against unlabeled murine or IgG clone anti-FcRH5, respectively, ranging from 50 to 0.02 nM (12 step 1:2 serial dilution) in the presence of a transfected OPM2 line stably expressing human-FcRH5 and a transfected SVT2 line stably expressing cynomologous-FcRH5. After a four hour incubation at 4° C., cells were washed and cell pellet counts were read by a gamma counter (1470 WIZARD Automatic Gamma Counter; Perkin Elmer, Walthem, Mass.). All points were done in triplicate and counted for 10 minutes. The average CPM was used for Kd calculation using the New Ligand (Genentech, South San Francisco, Calif.) program.

[2] = molecular target: T2, cynomolgus FcRH5 on stably transfected …; assay: Scatchard analysis: 0.5 nM 125I-labeled antibody competed with the unlabeled antibody (50 to 0.02 nM) on SVT2.cyFcRH5 cells, 4 h at 4 C; St. Error 0.027
Description: as §1, §2

[3] = molecular target: T1, human FcRH5 on stably transfected cells …; assay: Scatchard analysis: 0.5 nM 125I-labeled antibody competed with the unlabeled antibody (50 to 0.02 nM) on OPM2.huFcRH5 cells, 4 h at 4 C; St. Error 0.027
Description: as §1, §2

[4] = molecular target: T2, cynomolgus FcRH5 on stably transfected …; assay: Scatchard analysis: 0.5 nM 125I-labeled antibody competed with the unlabeled antibody (50 to 0.02 nM) on SVT2.cyFcRH5 cells (printed SVT2.cyFcRHS), 4 h at 4 C; St. Error 0.012
Description: as §1, §2

Binder | Kd [1] [pM] | Kd [2] [pM] | Kd [3] [pM] | Kd [4] [pM]
humanized anti-FcRH5 antibody 13G9 version 1 (antibody, human IgG1, V domains shown, also called hu13G9.v1; hu13G9 v1) VH: EVQLVQSGGGLVQPGGSLRLSCAASGYTFTNYGMNWVRQAPGKGLEWVGWVNTYTGEPTYTDDFKGRFTFSVDTSKSTVYLQMNSLRAEDTAVYYCARRSIPYYYAMDYWGQGTLVTVS VL: DIQMTQSPSSLSASVGDRVTITCKASQNVGSNVAWYQQKPGKAPKALIYSASYRYSGVPSRFSGSGSGTDFTLTISSLQPEDFATYYCQQYKTWTFGQGTKVEIKR | 200 | 560 |  | 
humanized anti-FcRH5 antibody hu13G9.1b (antibody, human IgG1, V domains shown, Full IgG as hu13G9.1a (human IgG1, kappa)) VH: EVQLVQSGGGLVQPGGSLRLSCAASGYTFTNYGMNWVRQAPGKGLEWVGWVNTYTGEPTYTDDFKGRFTFSVDTSKSTVYLQMNSLRAEDTAVYYCARRSIPYYYAMDYWGQGTLVTVS VL: DIQMTQSPSSLSASVGDRVTITCKASQNVGSNVAWYQQKPGKAPKALIYSASYRYSGVPSRFSGSGSGTDFTLTISSLQPEDFATYFCQQYKTWTFGQGTKVEIKR |  |  | 300 | 530
